# Measurements: patent US20210403576A1 (HELIXMITH, published 2021)
# Substitutions are numbered along the chain they refer to.
# B1: VH4/Vk2 (antibody, IgG1, V domains shown)
# VH: QVQLVQSGAEVKKPGSSVKVSCQGSGYSFPTHWITWVRQAPGQGLEWMGTIDPTDSYNFYGPSFQGRVTITADSSTSTAYMELSSLRSEDTAMYYCARDGNYYDSRGYYYDTFDMWGQGTLVTVSS
# VL: DIQMTQSPSSLSASVGDRVTITCRASQGISTYLAWYQQKPGKAPKLLIYSASTLESGVPSRFSGSGSGTDFTLTISSLQPEDFATYYCQQADSFPLTFGGGTKVEIK
# notes: Full IgG1/kappa expressed in HEK 293 EBNA cells
# B2: VH2/Vk0 (antibody, IgG1, V domains shown)
# VH: EVQLVQSGAEVKKPGESLKISCKGSGYSFPTHWITWVRQMPGKGLEWMGTIDPTDSYNFYGPSFQGQVTISADKSISTAYLQWSSLKASDTAMYYCARDGNYYDSRGYYYDTFDMWGQGTLVTVSS
# VL: B1 VL with S10F, K42T, F83S
# notes: as for B1
# B3: VH0/Vk0 (antibody, IgG1, V domains shown)
# VH: B2 VH with E1Q, K19R, K23Q, Q67H, K74S, I76S
# VL: B1 VL with S10F, K42T, F83S
# notes: Full IgG1/kappa with the variable domains of 1E4; also called 1E4 antibody variant including the constant domain where the residues were substituted
# B4: VH0/Vk2 (antibody, IgG1, V domains shown)
# VH: B2 VH with E1Q, K19R, K23Q, Q67H, K74S, I76S
# VL: B1 VL
# notes: as for B1
# B5: VH2/Vk2 (antibody, IgG1, V domains shown)
# VH: B2 VH
# VL: B1 VL
# notes: as for B1
# B6: VH3/Vk2 (antibody, IgG1, V domains shown)
# VH: B1 VH with M81L, E82Q, L83W, R87K, S88A, E89S
# VL: B1 VL
# notes: as for B1
# B7: VH5/Vk0 (antibody, IgG1, V domains shown)
# VH: B1 VH with M93V
# VL: B1 VL with S10F, K42T, F83S
# notes: as for B1
# B8: VH4/Vk5 (antibody, IgG1, V domains shown)
# VH: B1 VH
# VL: EIVLTQSPGTLSLSPGERATLSCRASQGISTYLAWYQQKPGQAPRLLIYSASTLESGIPDRFSGSGSGTDFTLTISRLEPEDFATYYCQQADSFPLTFGGGTKVEIK
# notes: as for B1
# B9: VH6/Vk0 (antibody, IgG1, V domains shown)
# VH: B1 VH with Q23K, G24A, S74K, M93V
# VL: B1 VL with S10F, K42T, F83S
# notes: as for B1
# B10: VH6/Vk2 (antibody, IgG1, V domains shown)
# VH: B1 VH with Q23K, G24A, S74K, M93V
# VL: B1 VL
# notes: as for B1
# B11: VH4/Vk0 (antibody, IgG1, V domains shown)
# VH: B1 VH
# VL: B1 VL with S10F, K42T, F83S
# notes: as for B1
# B12: VH5/Vk2 (antibody, IgG1, V domains shown)
# VH: B1 VH with M93V
# VL: B1 VL
# notes: as for B1
# B13: VH2/Vk5 (antibody, IgG1, V domains shown)
# VH: B2 VH
# VL: B8 VL
# notes: as for B1
# Target: T1, human c-Met (Sino Biological) (human, UniProt P08581 25-932, limits assumed)
# T1 construct: Analyte in the Biacore assay; also called antigen (c-Met); printed as "human c-Met antibody (Sino Biological, Beijing, China)"
# Experiment: derived from the Biacore KD, printed 'Average' 3.52 x10^-10 M divided by the KD
# Procedure: (§1) The candidate antibodies selected in Example 4 were measured for binding affinity for the antigen (c-Met) with the aid of Biacore. […] The anti-c-Met antibodies to be analyzed were immobilized on Protein A CM5 chips (GE Healthcare, Little Chalfont, UK) through which human c-Met antibody (Sino Biological, Beijing, China) with various concentrations ranging 0.15 to 2 nM was allowed to pass, thereby acquiring sensorgrams. On the basis of the acquired sensorgrams, association constants kₒₙ and dissociation constants koff were measured to calculate Ko value, the ratio koff/kₒₙ.
# (§2) In order to select a final candidate group from the 21 candidate antibodies selected in Example 4, comparison was made according to criteria specified into expression level, binding affinity for antigen, thermal stability, and biopotency. As a rule, the expression level is considered to be the most important index when time and cost are taken into consideration from a point of view of production. […] Thereafter, degrees of improvement in each of the remaining candidate antibodies compared to the reference antibody (VH0/Vk0) were digitized with regard to the selected indices. For normalization, analysis index measurements for individual candidate antibodies were divided by average values to give ratios (index 1) which were in turn divided by the measurement for the antibody VH0/Vk0 (index 2) (Tables 6 to 9). In addition, the measurements for the four indices were multiplied for comprehensive comparison of the four indices of the candidate antibodies. The final results (index 3) are listed in a descending order in Table 10.
# T1 sequence (P08581 25-932 limits assumed): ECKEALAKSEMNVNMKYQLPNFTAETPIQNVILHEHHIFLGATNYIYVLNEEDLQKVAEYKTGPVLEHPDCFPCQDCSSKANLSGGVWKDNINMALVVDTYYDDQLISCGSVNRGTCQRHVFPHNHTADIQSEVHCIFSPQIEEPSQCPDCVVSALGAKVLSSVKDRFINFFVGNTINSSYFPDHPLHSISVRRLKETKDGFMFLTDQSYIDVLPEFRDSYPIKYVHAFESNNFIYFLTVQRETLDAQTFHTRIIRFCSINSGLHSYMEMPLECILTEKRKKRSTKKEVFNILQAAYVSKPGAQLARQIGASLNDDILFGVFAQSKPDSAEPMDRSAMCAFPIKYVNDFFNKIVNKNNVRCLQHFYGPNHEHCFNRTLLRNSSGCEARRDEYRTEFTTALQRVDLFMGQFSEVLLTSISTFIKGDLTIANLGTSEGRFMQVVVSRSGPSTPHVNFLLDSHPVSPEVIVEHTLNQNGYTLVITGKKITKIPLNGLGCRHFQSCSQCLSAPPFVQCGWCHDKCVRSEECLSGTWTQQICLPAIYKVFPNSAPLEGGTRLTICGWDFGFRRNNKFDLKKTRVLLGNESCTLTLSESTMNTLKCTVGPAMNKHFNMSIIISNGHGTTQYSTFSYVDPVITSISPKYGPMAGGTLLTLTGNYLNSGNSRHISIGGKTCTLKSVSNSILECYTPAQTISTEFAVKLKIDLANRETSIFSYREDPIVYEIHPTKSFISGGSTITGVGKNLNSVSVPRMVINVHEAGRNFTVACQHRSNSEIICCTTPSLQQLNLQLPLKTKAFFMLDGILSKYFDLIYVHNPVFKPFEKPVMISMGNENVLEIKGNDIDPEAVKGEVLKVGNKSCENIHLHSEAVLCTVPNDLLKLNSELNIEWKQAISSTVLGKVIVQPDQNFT
row,"Index 1 (binding affinity, inverse KD relative to the Average 3.52)",Binder
1,0.832,B1
2,0.659,B2
3,0.677,B3
4,0.688,B4
5,0.701,B5
6,0.738,B6
7,1,B7
8,0.669,B8
9,0.85,B9
10,0.8,B10
11,0.891,B11
12,0.838,B12

# Target: T1, human c-Met (Sino Biological)
# Experiment: SPR (Biacore T200), IgG captured on Protein A CM5 chip, c-Met 0.15-2 nM as analyte
# Procedure: as §1
Kd [nM],Relative KD to VMDO2 VH0/Vk0,Binder
0.685,1.32,B13
0.423,0.81,B1
0.534,1.03,B2
0.52,1,B3
0.512,0.98,B4
0.502,0.97,B5
0.477,0.92,B6
0.352,0.68,B7
0.526,1.01,B8
0.414,0.8,B9
0.44,0.85,B10
0.395,0.76,B11
0.42,0.81,B12

# Target: T1, human c-Met (Sino Biological)
# Experiment: derived from the Biacore KD, normalised to VH0/Vk0
# Procedure: as §1, §2
row,"Index 2 (binding affinity, inverse KD relative to VH0/Vk0)",Binder
1,1.23,B1
2,0.974,B2
3,1,B3
4,1.02,B4
5,1.04,B5
6,1.09,B6
7,1.48,B7
8,0.989,B8
9,1.26,B9
10,1.18,B10
11,1.32,B11
12,1.24,B12

# Target: c-Met protein receptors on HUVEC (human, UniProt P08581 25-1390)
# Experiment: cell-based or functional assay
# Chain of c-Met protein receptors on HUVEC (P08581 25-1390): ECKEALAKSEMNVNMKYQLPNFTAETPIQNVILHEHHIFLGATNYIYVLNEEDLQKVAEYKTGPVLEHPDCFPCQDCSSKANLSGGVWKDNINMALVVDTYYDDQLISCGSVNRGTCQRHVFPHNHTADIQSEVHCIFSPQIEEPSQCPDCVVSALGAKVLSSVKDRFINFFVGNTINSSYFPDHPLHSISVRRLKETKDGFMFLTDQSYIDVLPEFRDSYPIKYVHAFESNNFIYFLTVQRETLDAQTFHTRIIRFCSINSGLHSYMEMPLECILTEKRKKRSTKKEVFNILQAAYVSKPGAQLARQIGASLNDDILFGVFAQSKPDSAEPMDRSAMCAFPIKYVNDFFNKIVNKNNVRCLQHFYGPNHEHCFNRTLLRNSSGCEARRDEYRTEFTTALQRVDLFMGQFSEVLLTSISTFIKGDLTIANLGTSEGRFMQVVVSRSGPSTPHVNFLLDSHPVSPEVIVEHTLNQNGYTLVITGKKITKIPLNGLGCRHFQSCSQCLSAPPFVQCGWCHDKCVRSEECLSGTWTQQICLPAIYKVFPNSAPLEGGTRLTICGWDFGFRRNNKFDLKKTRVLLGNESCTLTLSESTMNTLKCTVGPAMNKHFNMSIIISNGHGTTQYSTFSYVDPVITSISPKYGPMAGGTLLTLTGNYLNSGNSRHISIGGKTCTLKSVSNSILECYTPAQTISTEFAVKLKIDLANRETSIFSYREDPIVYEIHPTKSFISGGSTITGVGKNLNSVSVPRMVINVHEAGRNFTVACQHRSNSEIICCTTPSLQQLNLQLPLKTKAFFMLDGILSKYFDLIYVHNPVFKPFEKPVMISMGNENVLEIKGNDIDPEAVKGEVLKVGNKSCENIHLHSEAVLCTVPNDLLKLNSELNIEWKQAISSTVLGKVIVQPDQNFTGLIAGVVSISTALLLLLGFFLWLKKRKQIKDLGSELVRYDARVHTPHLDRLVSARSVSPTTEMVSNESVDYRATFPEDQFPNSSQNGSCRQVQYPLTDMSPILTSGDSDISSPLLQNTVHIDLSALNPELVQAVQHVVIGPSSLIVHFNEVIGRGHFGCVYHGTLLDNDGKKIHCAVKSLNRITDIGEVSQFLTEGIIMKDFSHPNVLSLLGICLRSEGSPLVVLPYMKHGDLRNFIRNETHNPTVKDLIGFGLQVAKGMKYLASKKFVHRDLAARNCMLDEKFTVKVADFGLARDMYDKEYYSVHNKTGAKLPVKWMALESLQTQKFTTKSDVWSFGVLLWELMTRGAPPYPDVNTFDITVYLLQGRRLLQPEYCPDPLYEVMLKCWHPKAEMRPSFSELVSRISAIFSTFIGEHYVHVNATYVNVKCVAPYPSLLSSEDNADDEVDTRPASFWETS
"Index 1 (Relative Migration divided by the Average 157.5), HUVEC migration assay","Index 2 (Relative Migration relative to VH0/Vk0), HUVEC migration assay","Relative Migration (%), HUVEC migration assay, 90 ng/ml [%]",Binder
1.13,1.19,177,B1
0.993,1.04,156,B2
0.951,1,150,B3
1.03,1.09,163,B4
1.12,1.18,176,B5
1.04,1.09,164,B6
0.813,0.855,128,B7
1.09,1.14,171,B8
0.962,1.01,152,B9
0.979,1.03,154,B10
0.773,0.812,122,B11
1.12,1.18,176,B12
